Test results: publication PMC7083883, “The cryo-EM structure of the SNX–BAR Mvp1 tetramer” (Nature Communications, 2020)
Changes are numbered by the printed parent chain. In names and notes the source's numbering stands.

T1: Mvp1 (Saccharomyces cerevisiae, UniProt P40959)
T1 construct: full-length, codons 1-511; E. coli; N-terminal His6-thrombin fusion or C-terminal MBP fusion cut off with PreScission; tetramer
T1 sequence (P40959 1-511): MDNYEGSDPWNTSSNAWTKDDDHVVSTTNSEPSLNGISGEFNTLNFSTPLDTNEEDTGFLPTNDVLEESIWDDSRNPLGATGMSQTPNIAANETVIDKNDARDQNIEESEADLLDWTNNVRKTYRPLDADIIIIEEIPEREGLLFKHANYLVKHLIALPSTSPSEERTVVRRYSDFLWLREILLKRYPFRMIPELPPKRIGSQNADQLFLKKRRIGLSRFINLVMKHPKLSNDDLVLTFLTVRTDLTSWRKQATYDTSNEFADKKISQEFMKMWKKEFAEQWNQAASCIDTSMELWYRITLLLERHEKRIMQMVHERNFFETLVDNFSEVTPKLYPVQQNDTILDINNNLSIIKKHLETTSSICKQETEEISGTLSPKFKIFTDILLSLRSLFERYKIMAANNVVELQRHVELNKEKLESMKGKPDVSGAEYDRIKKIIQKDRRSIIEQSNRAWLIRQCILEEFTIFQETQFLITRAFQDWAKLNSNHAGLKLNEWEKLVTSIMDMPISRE

B1: Mvp1 Δ2-78 (domain or fragment, S. cerevisiae, UniProt P40959 1-511, looked up)
chain: MGATGMSQTPNIAANETVIDKNDARDQNIEESEADLLDWTNNVRKTYRPLDADIIIIEEIPEREGLLFKHANYLVKHLIALPSTSPSEERTVVRRYSDFLWLREILLKRYPFRMIPELPPKRIGSQNADQLFLKKRRIGLSRFINLVMKHPKLSNDDLVLTFLTVRTDLTSWRKQATYDTSNEFADKKISQEFMKMWKKEFAEQWNQAASCIDTSMELWYRITLLLERHEKRIMQMVHERNFFETLVDNFSEVTPKLYPVQQNDTILDINNNLSIIKKHLETTSSICKQETEEISGTLSPKFKIFTDILLSLRSLFERYKIMAANNVVELQRHVELNKEKLESMKGKPDVSGAEYDRIKKIIQKDRRSIIEQSNRAWLIRQCILEEFTIFQETQFLITRAFQDWAKLNSNHAGLKLNEWEKLVTSIMDMPISRE
notes: source: E. coli BL21-Codon Plus(DE3)-RIPL, purified; not shown: His6 (pET-15b construct); MBP (pMW-variant construct; alternative to the His6 construct), C-terminal, cleaved
B2: Mvp1 Δ2-100 (domain or fragment, S. cerevisiae, UniProt P40959 1-511, looked up)
chain: MARDQNIEESEADLLDWTNNVRKTYRPLDADIIIIEEIPEREGLLFKHANYLVKHLIALPSTSPSEERTVVRRYSDFLWLREILLKRYPFRMIPELPPKRIGSQNADQLFLKKRRIGLSRFINLVMKHPKLSNDDLVLTFLTVRTDLTSWRKQATYDTSNEFADKKISQEFMKMWKKEFAEQWNQAASCIDTSMELWYRITLLLERHEKRIMQMVHERNFFETLVDNFSEVTPKLYPVQQNDTILDINNNLSIIKKHLETTSSICKQETEEISGTLSPKFKIFTDILLSLRSLFERYKIMAANNVVELQRHVELNKEKLESMKGKPDVSGAEYDRIKKIIQKDRRSIIEQSNRAWLIRQCILEEFTIFQETQFLITRAFQDWAKLNSNHAGLKLNEWEKLVTSIMDMPISRE
notes: Mvp1, S. cerevisiae, codons 1-511 lacking residues 2-100; The purification told for this construct is that of the C-terminal MBP fusion, cleaved with PreScission; residues of the cleavage site probably remain at the C-terminus (surmised); also called Mvp1 lacking its N-terminus; source: E. coli BL21-Codon Plus(DE3)-RIPL, purified (amylose resin, anion exchange, SEC, PreScission cleavage, Superdex …)
B3: Full-length Mvp1 (codons 1-511) (natural protein, S. cerevisiae, UniProt P40959 1-511, looked up)
chain: T1 sequence (P40959 1-511)
notes: Mvp1, S. cerevisiae sorting nexin with PX and BAR domains, codons 1-511, amplified from genomic DNA of W303A/alpha diploids; Two purification strategies: N-terminal His6 fusion with thrombin site (no cleavage described) or C-terminal MBP fusion cleaved with PreScission; also called wild type; SNX-BAR Mvp1; source: E. coli BL21-Codon Plus(DE3)-RIPL, purified (Ni-IDA or amylose resin, anion …)
B4: Mvp1 198KRI→AAA (natural protein, S. cerevisiae, UniProt P40959 1-511, looked up)
chain: T1 sequence (P40959 1-511) with K198A, R199A, I200A
notes: Mvp1, S. cerevisiae, codons 1-511 with residues 198-200 KRI changed to AAA in the PX PPII loop; also called Mut1; Mvp1 Mut1; source: E. coli BL21-Codon Plus(DE3)-RIPL, purified; not shown: His6 (pET-15b construct); MBP (pMW-variant construct; alternative to the His6 construct), C-terminal, cleaved

Columns and labels:
[1] = target: T1, Mvp1; test: liposome sedimentation, SDS-PAGE; format: binding; conditions: 5% PI3P in 95% DOPS liposomes (100 nm, 0.1 mg/ml); 1.2 µM protein; 20 mM Tris pH 7.5, 250 mM NaCl; 21 °C; DOPS-only liposomes as control
[2] = target: Mvp1 with an engineered PreScission site after residue 99, after cleavage (N-terminal sequence removed) (S. cerevisiae) (UniProt P40959); test: SEC-MALS; Superdex 200 10/300 GL, 20 mM TRIS/Cl pH 7.4, 250 mM NaCl unless stated (full-length Mvp1 also at 50 and 150 mM NaCl), 1.93 mM beta-mercaptoethanol; 500 ul of 20-21.2 uM protein injected (14 uM for Mvp1 Δ2-78); 0.3 ml/min
[3] = target: the molecule itself; test: as above
[4] = target: the molecule itself; test: cryo-EM structure; 2d and 3d classification of single particles of Mvp1 Mut1, ~5 uM protein, intermediate resolution (~7.7-8.2 Å)

Molecule	stoichiometry N [3]	also measured
CCCCCCCC/C=C\CCCCCCCC(=O)OC[C@H](COP(=O)(O)O[C@@H]1[C@H](O)[C@H](OP(=O)(O)O)[C@@H](O)[C@H](O)[C@H]1O)OC(=O)CCCCCCC/C=C\CCCCCCCC [PI3P]	–	liposome sedimentation, SDS-PAGE [1]: purified Mvp1, like SNX8 and several other SNX–BARs, bound to liposomes containing PI3P
Mvp1 with an engineered PreScission site after residue 99, after cleavage (N-terminal sequence removed) (from UniProt P40959 100-511) (domain or fragment)	–	stoichiometry N [2]: 2
B1	2	–
B2	2	–
B3	4	–
B4	–	stoichiometry N [4]: 2
